18 molecules from patent US20160376333A1 (University of Washington, published 2016) can be followed below.

B7: Epstein-Barr virus BHRF1 a.a. 1-161 with C-terminal avi-6his tag (other)
chain: AYSTREILLALCIRDSRVHGNGTLHPVLELAARETPLRLSPEDTVVLRYHVLLEEIIERNSETFTETWNRFITHTEHVDLDFNSVFLEIFHRGDPSLGRALAWMAWCMHACRTLCCNQSTPYYVVDLSVRGMLEASEGLDGWIHQQGGWSTLIEDNIPGSGLNDIFEAQKIEWHEGSHHHHHH
notes: also called EBV BHRF1; BHRF1-biotin
B12: human Mcl-1 a.a. 172-327 with C-terminal avi-6his tag (other)
chain: GSDELYRQSLEIISRYLREQATGAKDTKPMGRSGATSRKALETLRRVGDGVQRNHETAFQGMLRKLDIKNEDDVKSLSRVMIHVFSDGVTNWGRIVTLISFGAFVAKHLKTINQESCIEPLAESITDVLVRTKRDWLVKQRGWDGFVEFFHVEDLEGGGLNDIFEAQKIEWHEGSHHHHHH
B18: human Bcl-B a.a. 11-175 with C-terminal avi-6his tag (other)
chain: ADPLRERTELLLADYLGYCAREPGTPEPAPSTPEAAVLRSAAARLRQIHRSFFSAYLGYPGNRFELVALMADSVLSDSPGPTWGRVVTLVTFAGTLLERGPLVTARWKKWGFQPRLKEQEGDVARDCQRLVALLSSRLMGQHRAWLQAQGGWDGFCHFFRTPFPGLNDIFEAQKIEWHEGSHHHHHH
notes: also called BCL2L10

In assay [1] the target is B7. The experiment in a line: yeast display library, FACS sort at 400 nM BHRF1, deep sequencing.
In assay [2] the target is B7. The experiment in a line: yeast surface display; BHRF1 titrated on clonal yeast showing the design, fluorescence by flow cytometry (apparent KD). In general terms: A flow cytometer gives signals particle by particle.
The target of assay [3] is B7. The experiment in a line: yeast display library, FACS sort at 100 nM BHRF1, deep sequencing.
Assay [4] addresses T1, Bim-BH3 motif fused to the C-terminus of maltose-binding protein (MBP) (human, UniProt O43521 141-166).
T1 construct: domain: Bim-BH3 motif; also called MBP-Bim-BH3
The assay is described as follows: BLI, biotinylated target on streptavidin sensor, MBP-Bim-BH3 in solution. Background: Biolayer interferometry detects binding as a change in optical thickness at a sensor tip.

In assay [5] the target is human Bim-BH3 (a.a. 141-166) displayed on yeast (human, UniProt O43521 141-166). The assay is described as follows: yeast surface display titration (apparent KD).
The target in assay [6] is human Bcl-2 a.a. 1-207 with C-terminal avi-6his tag (human, UniProt P10415 2-207). The experiment in a line: initial BLI screening (column 'Binds target?').
In assay [7] the target is B12. The experiment in a line: yeast surface display titration (apparent KD).
The target of assay [8] is B12. The experiment in a line: BLI at a single analyte concentration (50 nM, 600 s association, then buffer); biotinylated BCL2 protein on a streptavidin sensor.
Assay [9] deals with B18. The assay is described as follows: ratio of the KD of the next tightest BCL2 protein to the KD of the target, BLI.

human Bim-BH3 (a.a. 141-166) displayed on yeast, sequence (O43521 141-166 limits assumed): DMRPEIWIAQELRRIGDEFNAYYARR

B1: Index 03 (designed binder)
chain: GLDHDKIVDEARKKMEKKIREAKDKAKEFVLKALDNNHDLKQFRELAHKWIALMLMAIGDAFNIMMEAKRKAEWLREQGQQDEDKAEEAKEKLDKAFKEAAERFEEIAKIYGKQAKNG
With B1, the results for the Log2 enrichment ratio in [1] and in [3] were 3.17 log2 and 2.52 log2, respectively. Besides, the Kd in assay [2] was 160 nM.

B2: human Bcl-w a.a. 1-182 with C-terminal avi-6his tag (other)
chain: MATPASAPDTRALVADFVGYKLRQKGYVCGAGPGEGPAADPLHQAMRAAGDEFETRFRRTFSDLAAQLHVTPGSAQQRFTQVSDELFQGGPNWGRLVAFFVFGAALCAESVNKEMEPLVGQVQEWMVAYLETQLADWIHSSGGWAEFTALYGDGALEEARRLREGNWASVRTVLTGAVALGAGLNDIFEAQKIEWHEGSHHHHHH
notes: range 1-182; also called BCL2L2
For B2, the values for the Kd in assay [4] and in [5] were 20 nM and 2.1 nM, respectively.

B3: 2-CDP01 (designed binder)
chain: ADPKKVLDKAKDQAENVVRKLKQELEELYKEARKLDLTQDMREKIKLRAEAAELQAIGDIFQAILQAKMEAKKLYDAGLVNSQQLDELKRRLEELAKEAEDRAAKLGKEFLQKLEYG
Take B3: the binding result in [6] is reported as “binds”.

B4: 2-CDP02 (designed binder)
chain: ADPKKVLDKAKDRAENAVRELKQKLEELYKEARKLDLTQDMRNKLIMKAIAAELRAIGDIFQAILEAKAEAKKLLDAGLVNSQQFDELKRRLEELEEEAAERARKLGDEFRQKLEYG
Regarding B4, the binding result in assay [6] is listed as “binds”.

B5: BbpD04 (designed binder)
chain: ADWKKVLDKAKDIAENRVREIKQKLEEFYKKAMKLDLTQEMRRKLMLEWIAAMLMAIGDIFNAIEQAKQEADKLKKAGQVNSQLLDELKRRLEELKEEASRKCHDYGREFQLKLEY
As for B5, the Kd in assay [7] came out at 17 nM.

B6: M-CDP01 (designed binder)
chain: ADPKKVLDKAKDQAENRVRELKQELEELYKKARKLDLTQEERRKLEEEAIAALLRAIGDIYNAIQQALNEADKLKKAGLVNSQQLDELKRRLEELKKEASKKARDYGLEFFEKLDY
For the molecule B6, the binding result in [8] is “binds”.

Take B7: the Kd in assay [4] was 7 nM; in assay [5] it was 12 nM.

B8: human Bfl-1 a.a. 1-153 (C4S) with C-terminal avi-6his tag (other)
chain: TDSEFGYIYRLAQDYLQCVLQIPQPGSGPSKTSRVLQNVAFSVQKEVEKNLKSCLDNVNVVSVDTARTLFNQVMEKEFEDGIINWGRIVTIFAFEGILIKKLLRQQIAPDVDTYKEISYFVAEFIMNNTGEWIRQNGGWENGFVKKFEPKSGGLNDIFEAQKIEWHEGSHHHHHH
notes: also called A1/Bfl-1
Turning to B8, the Kd was determined as 0.61 nM in assay [4] and 2.1 nM in [5].

B9: 10-INDI (designed binder)
chain: ADPKKILDKAKDQVENRVRELKQELERLYKEARKLDLTQEMRRKLHVRYIEAMLKAIAAIMNAIAQAENEADKLKKAGLVNSQQLDELRRRLEELTEEAAQKAHDYGRELQLKLEY
notes: also called αBCLB
Consider B9, for which the Specificity in [9] worked out at 1010 fold.

B10: Index 04 (designed binder)
chain: GLLAEEGREQAEERLREARKKAEKAGDKIKDLAKYGQDSDDEKKKFMLKWIAAQLMVIGDMFNHAMEALWELLRRLKNNKISWDAFLKAKEEIEREEKEAARDSREKGREAAKMIDQG
With B10, the Log2 enrichment ratio in assay [1] came to 1.96 log2; in assay [3] it was 2.11 log2. In addition, the Kd in assay [2] was found to be 44 nM.

B11: Index 01 (designed binder)
chain: GKRLEETVEETERRLREALREVYLLILLLAEEAKKKDLKEQNRHEYVFKWIAFMLMAIGDIFNIAEESKRRLDLFAKWGLHDRNKIDEAKKKIDKLALEAIERAKKYGDWFLNELDKG
As to B11, the figures for the Log2 enrichment ratio in [1] and in assay [3] were 3.54 log2 and 4.02 log2, respectively. Moreover, the Kd in [2] turned out to be 39 nM.

On to B12, for which the Kd came to 0.17 nM in [4] and 0.6 nM in assay [5].

B13: 2-CDP07 (designed binder)
chain: ADPKKVLDKAKDDAENRVRELKQKLEELYKEARKLDLTQEERDELKLKAIAASLQASGDIYNAILRALEEARKLKKAGLVNSQQLDELKRRLEELAEEAQRKANKLGDEFRLKLEY
For B13, the binding result in assay [6] is listed as “binds”.

B14: human Bcl-XL a.a. 1-205 with C-terminal avi-6his tag (other)
chain: SQSNRELVVDFLSYKLSQKGYSWSQFSDVEENRTEAPEGTESEMETPSAINGNPSWHLADSPAVNGATGHSSSLDAREVIPMAAVKQALREAGDEFELRYRRAFSDLTSQLHITPGTAYQSFEQVVNELFRDGVNWGRIVAFFSFGGALCVESVDKEMQVLVSRIAAWMATYLNDHLEPWIQENGGWDTFVELYGNNAAAESRKGLNDIFEAQKIEWHEGSHHHHHH
notes: also called BCL2L1
Turning to B14, in assay [4], the Kd stood at 1.56 nM.

B15: M-CDP05 (designed binder)
chain: ADPKKVLDKAKDQAENRVRELKQKLEELYKEARKLDLTQEERHRLETKALSALLAAIGDILDAIMQALQEAAKLKKAGLVNSQQLDELKRRLEELRKEASRKARDYGREFWLKLDY
Consider B15, for which the binding result in assay [8] is recorded as “binds”.

B16: 2-CDP03 (designed binder)
chain: ADPKKVLDKAKDQAENRVRELKQKLEELYKEARKLDLTQEMRRELKERALAARLQAVGDIFYAILQAKSEADKLKKAGLVNSQQLDELKRRLEELAEEAQRKARDYGIEFALKLEY
In the case of B16, in assay [6], the binding result was “binds”.

B17: Index 02 (designed binder)
chain: GKSLLGIALEALEEAKRDLEKAKKQMEEMLKKKWKFDTTRDLKARASAEWIAAALKAIGDRFNAKLLIELGLDELFNKGLITQDIKEDIKRRAEEIFEKIERLIKQAIKDKDRFEKLG
For the molecule B17, the Log2 enrichment ratio in [1] turned out to be 3.43 log2; in assay [3] it was 3.92 log2. Further, the Kd in [2] was 110 nM.

For B18, the Kd in assay [4] came to 7 nM.
